Test results taken from patent publication US20230257473A1 (TENEOBIO, published 2023).

B1: AntiX**BCMA_F7E_F7E (bispecific antibody, part only; not given: other chains of three-chain format, not shown: another chain or arm of the molecule)
tandem VH: QVQLVESGGGLVQPGGSLRLSCVASGFTFSSNAMSWVRQAPGKGLEWVSAISGSGDYTHYSDSVKGRFTISRDNSKNTLYLQMNSLRAEDTAVYYCAKEVPGGPLVDFDSRGQGTLVTVSSGGGGSGGGGSQVQLVESGGGLVQPGGSLRLSCVASGFTFSSNAMSWVRQAPGKGLEWVSAISGSGDYTHYSDSVKGRFTISRDNSKNTLYLQMNSLRAEDTAVYYCAKEVPGGPLVDFDSRGQGTLVTVSS
B2: anti-BCMA heavy chain-only antibody (UniAb) with the VH of SEQ ID NO: 12 (antibody, V domains shown)
VH: QVQLVESGGGLVQPGGSLRLSCVASGFTFSSNAMSWVRQAPGKGLEWVSAISGSGDYTHYSDSVKGRFTISRDNSKNTLYLQMNSLRAEDTAVYYCAKEVPGGPLVDFDSRGQGTLVTVSS
notes: Heavy chain-only antibody from UniRat; also called Clone ID No: 316302

Experiments:
[1] = molecular target: BCMA on BCMA-expressing cells (H929 / NCI-H929, MM1.S, U266, Daudi) (human) (UniProt Q02223); test: flow cytometry on H929 cells; antibody 0.195 ng/ml
[2] = molecular target: BCMA on BCMA-expressing cells (H929 / NCI-H929, MM1.S, U266, Daudi) (human) (UniProt Q02223); test: flow cytometry on H929 cells; antibody 0.391 ng/ml
[3] = molecular target: BCMA on BCMA-expressing cells (H929 / NCI-H929, MM1.S, U266, Daudi) (human) (UniProt Q02223); test: flow cytometry on H929 cells; antibody 1.560 ng/ml
[4] = molecular target: BCMA on BCMA-expressing cells (H929 / NCI-H929, MM1.S, U266, Daudi) (human) (UniProt Q02223); test: flow cytometry on H929 cells; antibody 25.000 ng/ml
[5] = molecular target: BCMA on BCMA-expressing cells (H929 / NCI-H929, MM1.S, U266, Daudi) (human) (UniProt Q02223); test: flow cytometry on MM1.S cells; antibody 0.098 ng/ml
[6] = molecular target: BCMA on BCMA-expressing cells (H929 / NCI-H929, MM1.S, U266, Daudi) (human) (UniProt Q02223); test: flow cytometry on MM1.S cells; antibody 0.391 ng/ml
[7] = molecular target: BCMA on BCMA-expressing cells (H929 / NCI-H929, MM1.S, U266, Daudi) (human) (UniProt Q02223); test: flow cytometry on MM1.S cells; antibody 0.781 ng/ml
[8] = molecular target: BCMA on BCMA-expressing cells (H929 / NCI-H929, MM1.S, U266, Daudi) (human) (UniProt Q02223); test: flow cytometry on MM1.S cells; antibody 3.130 ng/ml
[9] = molecular target: BCMA on BCMA-expressing cells (H929 / NCI-H929, MM1.S, U266, Daudi) (human) (UniProt Q02223); test: flow cytometry on H929 cells; antibody 100.000 ng/ml
[10] = molecular target: BCMA on BCMA-expressing cells (H929 / NCI-H929, MM1.S, U266, Daudi) (human) (UniProt Q02223); test: flow cytometry on MM1.S cells; antibody 200.000 ng/ml
[11] = molecular target: recombinant BCMA (R&D Systems, catalog no. 193-BC) (human) (UniProt Q02223); test: competitive ELISA, plate-bound BCMA; Ab 0.002 ng/mL; competitor APRIL 7.81 ng/mL
[12] = molecular target: recombinant BCMA (R&D Systems, catalog no. 193-BC) (human) (UniProt Q02223); test: competitive ELISA, plate-bound BCMA; Ab 0.200 ng/mL; competitor APRIL 0.00 ng/mL
[13] = molecular target: recombinant BCMA (R&D Systems, catalog no. 193-BC) (human) (UniProt Q02223); test: competitive ELISA, plate-bound BCMA; Ab 0.002 ng/mL; competitor APRIL 15.63 ng/mL
[14] = molecular target: recombinant BCMA (R&D Systems, catalog no. 193-BC) (human) (UniProt Q02223); test: competitive ELISA, plate-bound BCMA; Ab 0.002 ng/mL; competitor APRIL 31.25 ng/mL
[15] = molecular target: recombinant BCMA (R&D Systems, catalog no. 193-BC) (human) (UniProt Q02223); test: competitive ELISA, plate-bound BCMA; Ab 0.200 ng/mL; competitor APRIL 31.25 ng/mL
[16] = molecular target: recombinant BCMA (R&D Systems, catalog no. 193-BC) (human) (UniProt Q02223); test: competitive ELISA, plate-bound BCMA; Ab 0.200 ng/mL; competitor APRIL 62.50 ng/mL
[17] = molecular target: recombinant BCMA (R&D Systems, catalog no. 193-BC) (human) (UniProt Q02223); test: competitive ELISA, plate-bound BCMA; Ab 0.002 ng/mL; competitor APRIL 125.00 ng/mL
[18] = molecular target: recombinant BCMA (R&D Systems, catalog no. 193-BC) (human) (UniProt Q02223); test: competitive ELISA, plate-bound BCMA; Ab 0.002 ng/mL; competitor APRIL 250.00 ng/mL
[19] = molecular target: recombinant BCMA (R&D Systems, catalog no. 193-BC) (human) (UniProt Q02223); test: competitive ELISA, plate-bound BCMA; Ab 0.002 ng/mL; competitor APRIL 500.00 ng/mL
[20] = molecular target: recombinant BCMA (R&D Systems, catalog no. 193-BC) (human) (UniProt Q02223); test: competitive ELISA, plate-bound BCMA; Ab 0.020 ng/mL; competitor APRIL 250.00 ng/mL
[21] = molecular target: recombinant BCMA (R&D Systems, catalog no. 193-BC) (human) (UniProt Q02223); test: competitive ELISA, plate-bound BCMA; Ab 0.200 ng/mL; competitor APRIL 500.00 ng/mL
[22] = molecular target: recombinant BCMA (R&D Systems, catalog no. 193-BC) (human) (UniProt Q02223); test: competitive ELISA, plate-bound BCMA; Ab 20.000 ng/mL; competitor APRIL 31.25 ng/mL
[23] = molecular target: recombinant BCMA (R&D Systems, catalog no. 193-BC) (human) (UniProt Q02223); test: competitive ELISA, plate-bound BCMA; Ab 20.000 ng/mL; competitor APRIL 250.00 ng/mL
[24] = molecular target: recombinant BCMA (R&D Systems, catalog no. 193-BC) (human) (UniProt Q02223); test: competitive ELISA, plate-bound BCMA; Ab 200.000 ng/mL; competitor APRIL 15.63 ng/mL
[25] = molecular target: recombinant BCMA (R&D Systems, catalog no. 193-BC) (human) (UniProt Q02223); test: competitive ELISA, plate-bound BCMA; Ab 200.000 ng/mL; competitor APRIL 31.25 ng/mL
[26] = molecular target: recombinant BCMA (R&D Systems, catalog no. 193-BC) (human) (UniProt Q02223); test: competitive ELISA, plate-bound BCMA; Ab 200.000 ng/mL; competitor APRIL 250.00 ng/mL

BCMA on BCMA-expressing cells (H929 / NCI-H929, MM1.S, U266, Daudi) (human), sequence (Q02223 whole entry): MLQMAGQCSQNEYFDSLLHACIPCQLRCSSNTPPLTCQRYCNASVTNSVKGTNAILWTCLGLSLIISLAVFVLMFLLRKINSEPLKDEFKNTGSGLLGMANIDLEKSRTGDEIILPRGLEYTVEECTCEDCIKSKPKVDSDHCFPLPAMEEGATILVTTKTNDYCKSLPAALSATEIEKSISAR
recombinant BCMA (R&D Systems, catalog no. 193-BC) (human), sequence (Q02223 5-51 limits assumed): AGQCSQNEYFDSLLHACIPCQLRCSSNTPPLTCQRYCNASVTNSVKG

Row | Binder | MFI [1] | MFI [2] | MFI [3] | MFI [4] | MFI [5] | MFI [6] | MFI [7] | MFI [8] | MFI [9] | MFI [10] | A450-A570 [11] | A450-A570 [12] | A450-A570 [13] | A450-A570 [14] | A450-A570 [15] | A450-A570 [16] | A450-A570 [17] | A450-A570 [18] | A450-A570 [19] | A450-A570 [20] | other results
1 | B1 | 5010 | 5040 | 5060 | 6610 | 1960 | 2030 | 2010 | 2070 | 20900 | 7340 | 0.0602 | 0.0676 | 0.062 | 0.0528 | 0.0601 | 0.0595 | 0.0607 | 0.0607 | 0.0617 | 0.0618 | A450-A570 [21]: 0.0603; A450-A570 [22]: 0.828; A450-A570 [23]: 0.413; A450-A570 [24]: 2.37; A450-A570 [25]: 2.42; A450-A570 [26]: 2.21
2 | B2 | 5030 | 5030 | 5100 | 5480 | 2040 | 2070 | 2060 | 2110 | 7560 | 3180 | 0.0607 | 0.0708 | 0.0607 | 0.058 | 0.062 | 0.0631 | 0.066 | 0.0647 | 0.0836 | 0.0617 | A450-A570 [21]: 0.0745; A450-A570 [22]: 0.418; A450-A570 [23]: 0.148; A450-A570 [24]: 2.4; A450-A570 [25]: 2.29; A450-A570 [26]: 0.969
